Laboratory results published in the supplement of paper PMC9732359.
± gives the uncertainty stated by the source.

Test: protein stability index of a GFP-peptide fusion (yeast GPS) (PSI 1-4); higher = more stable; sorted into four equal gates, so the index is relative within each strain
Procedure, shortened: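 Tiled 17-residue peptides from yeast proteins were fused downstream of GFP on a plasmid that also expresses Cherry, and the pooled library was carried in yeast. Mid-log cultures grown in leucine-free medium were sorted into four equal gates by GFP/Cherry fluorescence ratio. Plasmids from each gate were PCR-amplified and Illumina-sequenced, and reads were assigned to strains by barcodes. Each peptide's protein stability index is the sum, over gates, of the gate's read frequency multiplied by its gate number.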

Sequence | protein stability index (doa10∆) | protein stability index (pdr5∆) | protein stability index (san1∆) | protein stability index (ubr1∆)
KDIEKLTNEISDLKGKL [YIL149C/MLP2] | 3.04 ± 0.11 | 3.12 ± 0.049 | 3.34 ± 0.067 | 3.17 ± 0.057
KDIKANLSSNVNFTEIG [YCS4] | 2.83 ± 0.043 | 2.74 ± 0.051 | 2.77 ± 0.05 | 2.77 ± 0.039
KDIRSTLASLIRYNSVE [RPC82] | 2.67 ± 0.14 | 2.13 ± 0.086 | 2.67 ± 0.12 | 2.45 ± 0.11
KDLDGWQVIITDDQGRV [SIR3] | 3.15 ± 0.093 | 3.03 ± 0.077 | 3.21 ± 0.068 | 3.35 ± 0.064
KDLKEILSGFHNAGPVA [RPP1B] | 2.93 ± 0.057 | 2.75 ± 0.062 | 2.62 ± 0.066 | 2.58 ± 0.066
KDLVKNNVSFNAKDIQI [FAS1] | 2.46 ± 0.041 | 2.62 ± 0.061 | 2.69 ± 0.07 | 2.71 ± 0.043
KDPVDFVRQAAMIALSM [RPN2] | 1.42 ± 0.082 | 2.21 ± 0.14 | 1.81 ± 0.17 | 1.97 ± 0.13
KDRLYCGKCHSVYKVNA [RPS31] | 1.49 ± 0.086 | 2.26 ± 0.1 | 1.89 ± 0.14 | 2.01 ± 0.052
KDSTAGKKVFETQYFWK [YJR042W/NUP85] |  |  | 3.03 ± 0.21 | 
KEAAAIAEGKSKQDASP [RPL8B] | 2.96 ± 0.1 | 3.35 ± 0.083 | 2.99 ± 0.068 | 3.06 ± 0.062
KEAAAVAEGKSKQDASP [RPL8A] | 3.22 ± 0.085 | 3.29 ± 0.056 | 3.15 ± 0.044 | 3.04 ± 0.054
KEDADLKRMEILKSPHL [SIR4] | 2.88 ± 0.053 | 2.95 ± 0.077 | 2.99 ± 0.053 | 3.08 ± 0.057
KEECQIEDDGIIESHLI [CSN9] | 3.59 ± 0.25 | 3.23 ± 0.14 | 3.19 ± 0.084 | 3.02 ± 0.23
KEELLRDGVLTVTLNKN [RRP45] | 1.78 ± 0.054 | 2.11 ± 0.06 | 2.21 ± 0.084 | 2.06 ± 0.048
KELDALQEKEQLYFKKK [ISW2] | 3.22 ± 0.11 | 3.15 ± 0.14 | 3.24 ± 0.25 | 3.55 ± 0.11
KELQQLQKQILTVENKL [SMC1] | 1.74 ± 0.081 | 1.99 ± 0.063 | 1.98 ± 0.091 | 2.18 ± 0.09
KELQYDNEQNLESDFVT [PRE2] | 2.93 ± 0.092 | 3.16 ± 0.075 | 2.91 ± 0.075 | 3.02 ± 0.055
KENELLFGEKSILGKFC [YCS4] | 1.55 ± 0.04 | 1.72 ± 0.051 | 1.59 ± 0.11 | 1.73 ± 0.039
KERIIRAFLIEEQKIVK [RPL34A] | 3.06 ± 0.082 | 2.26 ± 0.087 | 2.04 ± 0.13 | 2.49 ± 0.066
KEVIELPVKHPELFESL [RPT6] | 2.98 ± 0.064 | 3.04 ± 0.036 | 3.05 ± 0.054 | 3.09 ± 0.055
KEVSSFLMGIFNSVVNL [MTR3] | 2.83 ± 0.057 | 2.91 ± 0.049 | 2.88 ± 0.056 | 3 ± 0.043
KEYQCSAVIIDEFKDIT [YIL149C/MLP2] | 2.46 ± 0.065 | 2.75 ± 0.065 | 2.35 ± 0.055 | 2.88 ± 0.044
KFEPLYPREEEEDYNEF [PRP8] | 3.35 ± 0.15 | 3.31 ± 0.13 | 3.12 ± 0.072 | 3.37 ± 0.096
KFFTQSNLEKLPKYKEK [MED7] | 2.43 ± 0.046 | 2.7 ± 0.048 | 2.82 ± 0.053 | 2.62 ± 0.04
KFILQILQILNLMILNT [YML103C/NUP188] | 1.3 ± 0.081 | 1.29 ± 0.064 | 1.42 ± 0.21 | 2.09 ± 0.03
KFKDMGIRAPKGALMYG [RPT5] | 3.01 ± 0.13 | 3.46 ± 0.19 | 3.17 ± 0.21 | 3.4 ± 0.18

Sequence | protein stability index (doa10∆) | protein stability index (pdr5∆) | protein stability index (san1∆) | protein stability index (ubr1∆)
KFLKIASLKHDNETKAM [RPN3] | 2.75 ± 0.1 | 3.16 ± 0.13 | 2.76 ± 0.1 | 3.17 ± 0.12
KFPATNVTTILDEIFSG [ECM29] | 2.54 ± 0.078 | 2.93 ± 0.066 | 2.28 ± 0.06 | 2.7 ± 0.063
KFQGVLESEAQKKATMS [RPC34] | 3.54 ± 0.18 | 3.01 ± 0.18 |  | 3.34 ± 0.11
KFQLQNQLEDFILELEH [YIL149C/MLP2] | 2.72 ± 0.081 | 1.95 ± 0.099 | 2.11 ± 0.11 | 1.91 ± 0.086
KFTIEPGVLPVGIDTHT [SNF2] | 2.75 ± 0.12 | 2.61 ± 0.14 | 3 ± 0.14 | 2.73 ± 0.068
KGALMYGPPGTGKTLLA [RPT5] | 2.18 ± 0.074 | 2.24 ± 0.069 | 2.3 ± 0.18 | 1.35 ± 0.11
KGETNSEISIIDATLKE [RRP45] | 2.92 ± 0.074 | 3.08 ± 0.068 | 3.31 ± 0.072 | 3.19 ± 0.059
KGKKGQKKRVVDPFTRK [RPS1A] | 3.25 ± 0.13 | 3.69 ± 0.18 | 3.19 ± 0.15 | 3.47 ± 0.056
KGKKYQPKDLRAKKTRA [RPL35A] | 2.85 ± 0.25 | 2.98 ± 0.14 | 2.46 ± 0.13 | 2.89 ± 0.12
KGPIIISKNPSNGIFYG [SIR2] | 2.74 ± 0.067 | 2.5 ± 0.061 | 1.92 ± 0.083 | 2.3 ± 0.053
KGPLLIERIGHLLSINY [PCI8] | 2.35 ± 0.11 | 2.71 ± 0.15 |  | 3.11 ± 0.15
KGQGPFTLTYDIIETFS [YMR129W/POM152] | 1.95 ± 0.045 | 2.31 ± 0.064 | 2.02 ± 0.057 | 2.48 ± 0.044
KGRKTNKYANNDFANNL [CSL4] | 3.28 ± 0.066 | 3.14 ± 0.053 | 3.13 ± 0.051 | 3.15 ± 0.095
KGRSYAYFMVGAMGLLS [RIP1] | 2.39 ± 0.11 | 2.82 ± 0.12 | 3.16 ± 0.2 | 2.98 ± 0.074
KGYVFKISGGNDKQGFP [RPS6A] | 2.62 ± 0.068 | 2.89 ± 0.071 | 2.99 ± 0.052 | 3 ± 0.054
KHGAVHMSTYLKIYKVG [RPL21B] | 1.65 ± 0.042 | 1.52 ± 0.043 | 1.9 ± 0.062 | 1.74 ± 0.054
KHHQLFYMLNAGIRPKF [RPN1] | 2.23 ± 0.17 | 2.04 ± 0.085 | 1.7 ± 0.082 | 1.98 ± 0.1
KHLEDNTLLISGPFKVN [RPL6A] | 1.83 ± 0.085 | 2.01 ± 0.072 | 1.63 ± 0.13 | 2.14 ± 0.048
KHWQERVKVHFDQAGKK [RPL13A] | 2.31 ± 0.046 | 2.33 ± 0.047 | 2.28 ± 0.064 | 2.35 ± 0.036
KIEFPLPSEDSRAQILQ [RPT5] | 3.39 ± 0.15 | 3.18 ± 0.13 | 3.11 ± 0.09 | 3.51 ± 0.11
KIGDLGLARKFHNMLQT [SSN3] | 2.9 ± 0.085 | 3.14 ± 0.1 | 3.23 ± 0.058 | 3.37 ± 0.045
KIIEDLRQKHEFLEDFD [SMC2] | 2.96 ± 0.097 | 2.54 ± 0.077 | 2.6 ± 0.087 | 2.94 ± 0.17
KIKDNKEKIKNNRQLPY [RPT5] | 3.23 ± 0.12 | 3.24 ± 0.16 | 3.18 ± 0.1 | 2.86 ± 0.1
KIKHGSVTEIPLKLSGE [YMR129W/POM152] | 2.77 ± 0.07 | 2.93 ± 0.057 | 2.58 ± 0.072 | 2.97 ± 0.086
KILSILNRSHFATTKAE [ECM29] | 2.68 ± 0.076 | 2.33 ± 0.048 | 2.4 ± 0.047 | 2.19 ± 0.037
KIRRHPNIMLIFGSGFG [FAS1] | 1.9 ± 0.057 | 2.07 ± 0.061 | 1.68 ± 0.13 | 1.39 ± 0.054
